Test results from the nanobody polyreactivity screen of Harvey et al. (2022).

Assay: yeast display, Sf9 membrane polyspecificity reagent, FACS + sequencing; frameworks hold sequencing errors
In short: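 Using colony PCR, genes from sorted yeast display clones were amplified, then sequenced on MiSeq at 2 × 250 and filtered by CDR length. The clones had been stained with 10% biotinylated, detergent-solubilized Sf9 membrane reagent for 1 hour at 4 °C and sorted by FACS into low and high (top ~1%) gates on anti-HA and streptavidin fluorescence. Polyreactivity labels come from the gate of origin.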

Row | Sequence | polyreactivity (PSR sort gate)
1 | QVQLVESGGGIVQAGGSLRLSCAASGPIFGSYALRWARQAPGKERELVAAITRSGGSTYYADSVKGRFTISRDNAKNTVYLQMNILKPEDTAVYYCAAYFSFSGSAKFGYWGQGTQVTVSS | high polyreactivity
2 | QVQLVESGGGLFQAGGSLRLICAASGFIFGGSDMGWYRQAPGKERELVAAISRSGGSTYYADYVKGRFTISRDNAKNTVYLQMNSMKREDTAVYYCNSVPRRQGFNYLGQGTQVTVSS | high polyreactivity
3 | QVQLVESGGGLVQAGGSLRISCAASGRTFDPYAMGWYRQAPGKERELVASISRGGSTYADSVKGRFTISRDNAKNTVYLQMNSLKPEDTAVYYCNTSLYTEGDAMDYWGQGTQVTVSS | low polyreactivity
4 | QVQLLESGGGLVQAGGSLRLSCAASGTSAQEDWMGWYRQAPGKEREFVAAIGLGSHTNYADSLKGRFTISRDNAKNTVYLHMNSLKPEDTAVYYCAVSVWQYSDHVYRGQGTQVTVSS | low polyreactivity
5 | QVQLVESGGGLVQAGGSLRLSCAASGITFRYYAMGWYRQAPGKERELVAAITRSGSTTYADSVKGRFTISRDNAKNTVYLQMNSLKPEDTAVYYCAVDYYYLTGGVDYWGQGTQVTVSS | low polyreactivity
6 | QVQLVESVGGLVQAGGSLRLSCAASGSIFNRYAMGRYRQAPGKERELVAAISTHTGTTYYADSVKGRFTISRDNAKNTVYLQMNSLKPEDTAVYYCAKRSRYGYGKSYDYWGQGTQVTVSS | high polyreactivity
7 | QVQLVESGGGLVQAGGSLRLSCAASGSIFRNNTMGWYRQAPGKERELVAAISGRGTRTSYADSVKGRFTISRDNAKNTVYLQMNSLKPEDTAVYYCAAVYYWRPGWYVRFDYWGQGTQVTVSS | low polyreactivity
8 | QVQHVESGGGLVQAGGSLRLSCAASGFIFRSYAMGWFRQAPGKERELVAAISNGVITNYADSVKGRFTISRDNSKNTVYLQRNSLKPEDTAVYYCDADYNSQDDYWGQGTQVTVSS | low polyreactivity
9 | QVQLVESGGGLVQAGGSLRLSCAASGRTFWNYAMGWYRQAPGKERELVAVIRFSDVSTYYADSVKGRFTISRDNAKNTVYLQMNSLKPEDTAVYYCAAKGPRRWGSGFDYWGLGTQVTVSS | low polyreactivity
10 | QVQLVESGGGLVQAGGSLRLSCAASGSTFTQYAMGWYRQAPGKERELVATISRRGTRTYYADSVKGRFTISRDNAKNTVYLQMNSLKPEDTAVYYCAADNGPYRTIGYDSWGQGTQVTVSS | high polyreactivity
11 | QVQLVESGGGLVQAGGSLRLSCAASGFTFVRYAMGWDSQAPGTERELVAAMSRSGGSTYYADSVKGRFTISRDNAKNTVYLQMNSLKPEDTAVYYCAADIKGRTGDAYDYWGQGTQVTVSS | low polyreactivity
12 | QVQLVESGGGLVQAVGSLRLSCAASGLTFYSNAMGWYRQPHGKERELVATISQDGGRTYADSVKGRFTISRDNAKNTVYLQMNSLKPEDTAVYYCAADYSGNYDFGYWGQGTQVTVSS | low polyreactivity
13 | QVQLVESGGGLVQAGGSLRLTCAASGSIFRYYAMGWYRQAPGKERELVAAISRSGGSTYYADSVKGRFTISRDNAKNTVYLQMNSLKPEDTAVYYCAAEYRVRSQGYDYWGQGTQVTVSS | high polyreactivity
14 | QVQLVESGGGLVQAGGSLRLSCAASGIIFARNAMGWYRQAPGKERELVATISRNGGRTYYADSVKGRFTISRDNAKNTVYLQMNSLKPEDTAVYYCARPYYGSWHSYGVDYWGQGTQVTVSS | high polyreactivity
15 | QVQLVESGGGLVQAGGSLRLSCAASGSIFAWYAMGWYRQAPGKERELVAAISYRGGRTYYADSVKGRFTISRDNAKNTVYLQMNSLKPEDTAVYYCATDANRGYPSYDYWGQGTQVTVSS | high polyreactivity
16 | QVQLVESGGGLVQAGGSLRLSCAASGFTFGIYAMGWYRQAPGKERELVADISSGGSTYYADSVKGRFTISRDNAKNTVYLQMNSLKPEDTAVYYCARDSWWYHHYDYWGQGTQVTVSS | low polyreactivity
17 | QVQRVESGGGLVQAGGSLRLSCAASGYTFEAYAMGWYRQAPGKERELVAAITINGGSTYYADSVKGRFTISRDNAKNTVYLQMNSLKPEDTAVYYCAADLFHRAGWYFAYGHWGLGTQVTVSS | low polyreactivity
18 | QVQLVESGGGLVQAGGSLRLSCAASGSTFTYNAMGWYRQAPGKERELVASISSGTTTYYADSVKGRFTISRDNAKNTVYLQMNSLKPDDTAVYYCNADIYTWFQIGGYQYDYWGQGTQVTVSS | low polyreactivity
19 | QVQRVESGGGLVQAGGSLRLSCAASGFTFYRYAMGWYRQAPGKEREFVAVINIRGSTTYYADSVKGRFTISRDNAKNTVYLQMNSLKPEDTAVYYCARRYRGPYYSLPRRKEFDYWGQGTQVTVSS | high polyreactivity
20 | QVQLVESGGGLVQAGGSLRLSCAASGGTFYRYAMGWYRQAPGKERELVAAISRGGSTTYADSVKGRFTISRDNAKNTVYLQMNSLKPEDTAVYYCAARYRCSLPAGLRLLGQGTQVTVSS | high polyreactivity
21 | QVQLEESGGGLVQAGGSLRLICAASGSIFYYKYAMGGYRQAPGKERELVAAITSTGGTTYYADSVKGRFTISRDNAKNTVYLQMNSLKPEDTAVYYCAALAPYIGGVDYDYWGQGTQVTVSS | low polyreactivity
